Data taken from patent US20200299373A1.
Values belong to the binder of their own block, whether it stands above or below them.

Assays:
[1] = target: recombinant human FAM19A5 protein (His-tagged) (human) (UniProt Q7Z5A7); experiment: ELISA on coated FAM19A5, as in Example 6
[2] = target: recombinant human FAM19A5 protein (His-tagged) (human) (UniProt Q7Z5A7); experiment: two-site sandwich ELISA; capture antibody 1-65; S/N = O.D. at 10 ng/mL antigen / O.D. at 0 ng/mL; O.D. in column 0 printed 0.44
[3] = target: recombinant human FAM19A5 protein (His-tagged) (human) (UniProt Q7Z5A7); experiment: two-site sandwich ELISA; capture antibody P2-F11; S/N = O.D. at 10 ng/mL antigen / O.D. at 0 ng/mL; O.D. in column 0 printed 0.4
[4] = target: recombinant human FAM19A5 protein (His-tagged) (human) (UniProt Q7Z5A7); experiment: ELISA on N'-Term His FAM19A5, fit of the titration; R2 printed 0.9303; the text gives about 2.77 nM for 2-13, which on the sheet stands under 13F7
[5] = target: recombinant human FAM19A5 protein (His-tagged) (human) (UniProt Q7Z5A7); experiment: two-site sandwich ELISA; capture antibody P2-F11; biotinylated detection antibody 2-13; antigen in ng/mL
[6] = target: recombinant human FAM19A5 protein (His-tagged) (human) (UniProt Q7Z5A7); experiment: ELISA, His-FAM19A5 (positive control) coated on the plate, absorbance at 492 nm
[7] = target: recombinant human FAM19A5 protein (His-tagged) (human) (UniProt Q7Z5A7); experiment: two-site sandwich ELISA; capture antibody P2-A03; S/N = O.D. at 10 ng/mL antigen / O.D. at 0 ng/mL; O.D. in column 0 printed 0.39
[8] = target: recombinant human FAM19A5 protein (His-tagged) (human) (UniProt Q7Z5A7); experiment: two-site sandwich ELISA; capture antibody 3-2; S/N = O.D. at 10 ng/mL antigen / O.D. at 0 ng/mL; O.D. in column 0 printed 0.38
[9] = target: recombinant human FAM19A5 protein (His-tagged) (human) (UniProt Q7Z5A7); experiment: two-site sandwich ELISA; capture antibody 13B4; biotinylated detection antibody 2-13; antigen in ng/mL
[10] = target: recombinant human FAM19A5 protein (His-tagged) (human) (UniProt Q7Z5A7); experiment: two-site sandwich ELISA; capture antibody 13B4; S/N = O.D. at 10 ng/mL antigen / O.D. at 0 ng/mL; grey cell; cells 10 and 0 under recheck
[11] = target: recombinant human FAM19A5 protein (His-tagged) (human) (UniProt Q7Z5A7); experiment: two-site sandwich ELISA; capture antibody 3-2; biotinylated detection antibody 2-13; antigen in ng/mL
[12] = target: recombinant human FAM19A5 protein (His-tagged) (human) (UniProt Q7Z5A7); experiment: ELISA on N'-Term His FAM19A5, fit of the titration (OD 492 nm); R2 printed 0.9303
[13] = target: recombinant human FAM19A5 protein (His-tagged) (human) (UniProt Q7Z5A7); experiment: two-site sandwich ELISA; capture antibody P2-A03; biotinylated detection antibody 2-13; antigen in ng/mL
[14] = target: recombinant human FAM19A5 protein (His-tagged) (human) (UniProt Q7Z5A7); experiment: two-site sandwich ELISA; capture antibody 1-65; biotinylated detection antibody 2-13; antigen in ng/mL
[15] = target: recombinant human FAM19A5 protein (His-tagged) (human) (UniProt Q7Z5A7); experiment: ELISA on N'-Term His FAM19A5, fit of the titration (OD 492 nm); R2 printed 0.9422
[16] = target: recombinant human FAM19A5 protein (His-tagged) (human) (UniProt Q7Z5A7); experiment: ELISA on N'-Term His FAM19A5, fit of the titration; R2 printed 0.9422
[17] = target: recombinant human FAM19A5 protein (His-tagged) (human) (UniProt Q7Z5A7); experiment: ELISA on N'-Term His FAM19A5, fit of the titration (OD 492 nm); R2 printed 0.2002
[18] = target: recombinant human FAM19A5 protein (His-tagged) (human) (UniProt Q7Z5A7); experiment: ELISA on N'-Term His FAM19A5, fit of the titration (OD 492 nm); R2 printed -0.2016
[19] = target: recombinant human FAM19A5 protein (His-tagged) (human) (UniProt Q7Z5A7); experiment: ELISA on N'-Term His FAM19A5, fit of the titration; poor fit, R2 printed -0.2016
[20] = target: recombinant human FAM19A5 protein (His-tagged) (human) (UniProt Q7Z5A7); experiment: ELISA on N'-Term His FAM19A5, fit of the titration (OD 492 nm); R2 printed 0.9105
[21] = target: recombinant human FAM19A5 protein (His-tagged) (human) (UniProt Q7Z5A7); experiment: ELISA on N'-Term His FAM19A5, fit of the titration; R2 printed 0.9105
[22] = target: recombinant human FAM19A5 protein (His-tagged) (human) (UniProt Q7Z5A7); experiment: ELISA on N'-Term His FAM19A5, fit of the titration; R2 printed 0.9813
[23] = target: recombinant human FAM19A5 protein (His-tagged) (human) (UniProt Q7Z5A7); experiment: ELISA on N'-Term His FAM19A5, fit of the titration (OD 492 nm); R2 printed 0.9813
[24] = target: recombinant human FAM19A5 protein (His-tagged) (human) (UniProt Q7Z5A7); experiment: ELISA on N'-Term His FAM19A5, fit of the titration (OD 492 nm); R2 printed 0.1299

B2: P2-C12 (antibody, V domains shown)
VH: QSLEESGGRLVTPGTPLTLTCTVSGFSLSTYAVTWVRQAPGKGLEWIGYINWRGGTSYANWAKGRFTISKTSSTTVDLKMTSPTTEDTATYFCARDASSGAAFGSYGMDPWGPGTLVTVSS
VL: ELDMTQTPSSVSAAVGGTVTIKCQASQSISSYLSWYQQKPGQPPKLLIYEASKLASGVPSRFSGSGYGTEFTLTISDLECADAATYYCQQGYSSTNVWNAFGGGTNVEIKR
- Bmax [15]: 1.73
- Kd [16]: 7.64 nM

B4: P1-A08 (antibody, V domains shown)
VH: QSLEESGGRLVTPGTPLTLTCTASGFSLSTYYMSWVRQAPGKGLEWIGIVYPSGTTYYANWAKGRFTISTASTTVDLMITSPTTEDTATYFCARGDSFGYGLWGPGTLVTVSS
VL: ELVLTQSPSVQVNLGQTVSLTCTADTLSRSYASWYQQKPGQAPVLLIYRDTSRPSGVPDRFSGSSSGNTATLTISGAQAGDEADYYCATSDGSGSNYQYVFGGGTQLTVTR
- Bmax [18]: 0.479
- Kd [19]: 6.95 nM

B5: P2-A01 (antibody, V domains shown)
VH: QEQLVESGGRLVTPGTPLTLSCTASGFFLSGYYMSWVRQAPGKGLEWIGIIYPSGSTDYASWAKGRFTISKTSTTVDLKITTPTTEDTATYFCARVAGYVGYGYETFFDIWGPGTLVTVSL
VL: ELVMTQTPPSLSASVGETVRIRCLASEDIYSGISWYQQKPGKPPTLLIYGASNLESGVPPRFSGSGSGSDYTLTIGGVQAEDAATYYCLGGVTYSSTGTHLTFGAGTNVEIKR
- Bmax [20]: 1.19
- Kd [21]: 9.09 nM

B6: P1-A03 (antibody, V domains shown)
VH: QSVEESGGRLVTPGTPLTLTCTVSGFSLSSDYMSWVRQAPGEGLEWIGIIYPSTTTYYASWAKGRFTISKTSSTTVELKMTSLTTEDTATYFCARGSNWSSGMNLWGPGTLVTVSS
VL: ELVMTQTPPSLSASVGETVRIRCLASEDIYSGISWYQQKPEKPPTLLISGASNLESGVPPRFSGSGSGTDYTLTIGGVQAEDAATYYCLGGYSYSSTGLTFGAGTNVEIKR
- Kd [22]: 7.5 nM
- Bmax [23]: 2.45

B7: P1-F02 (antibody, V domains shown)
VH: QSLEESGGRLVTPGTPLTLTCTASGFSLSNYYMGWVRQAPGEGLEWIGIIYASGSTYYASWAKGRFTISKTSTTVDLKMTSLTTEDTATYFCARIDIGVGDYGWAYDRLDLWGQGTLVTVSS
VL: ELDMTQTPPSLSASVGETVRIRCLASEDIYSGISWYQQKPGKPPTLLIYGASNLESGVPPRFSGSGSGTDYTLTIGGVQAEDAATYYCLGGYSYSSITFGAGTNVEIKR
- Bmax [24]: 0.172

Now from value to binder:

- Kd [1]: 2.77 nM
- S/N [2]: 4.1
- S/N [3]: 4.8
- Kd [4]: 1.96 nM
- O.D., antigen 100 [5]: 1.94
- O.D., antigen column 10 [5]: 1.91
- O.D. [6]: 3.6
- S/N [7]: 2.7
- S/N [8]: 5.1
- O.D., antigen 100 [9]: 1.48
- S/N [10]: 1.1
- O.D., antigen 100 [11]: 2.01
- O.D., antigen column 10 [11]: 1.97
- Bmax [12]: 2.41
- O.D., antigen 100 [13]: 1.88
- O.D., antigen column 10 [13]: 1.07
- O.D., antigen 100 [14]: 2.02
- O.D., antigen column 10 [14]: 1.8
B1: anti-FAM19A5 antibody 2-13 (antibody, V domains shown)
VH: AVTLDESGGGLQTPGGALSLVCKASGFTFSSHGMFWVRQTPGKGLEYVAEITNDGSGTNYGSAVKGRATISRDNGQSTVRLQLNNLRAEDTGTYFCARSTYECPGGFSCWGDTGQIDAWGHGTEVIVSS
VL: ALTQPSSVSANPGETVKITCSGGSYSYGWFQQKSPGSALVTVIYWDDERPSDIPSRFSGALSGSTNTLTITGVQADDEAVYFCGTEDISGTAGVFGAGTTLTVL

- Bmax [17]: 0.134
B3: P2-F07 (antibody, V domains shown)
VH: QSLEESGGRLVTPGTPLTLTCTASGFSLSSYYMNWVRQAPGKGLEWIGIIYPSGTTYYAGWAKGRFTISKTSTTVDLKITSPTSEDTATYFCARTVSGYFDIWGPGTLVTVSL
VL: ELDLTQTPPSLSASVGGTVTINCLASEDIYSALAWYQQKPGKPPTLLISGTSNLESGVPPRFSGSGSGTDYTLTIGGVQAEDAATYFCQGYSSYPLTFGAGTNVEIKR
